Source: PMC1331984
Where a chain is given by its changes, count along the chain named. Like-named read-outs stand apart in the source and are kept apart here.

T1: TraI36 (F TraI relaxase domain) (Escherichia coli F plasmid (F factor), UniProt P14565 1-330)
T1 sequence: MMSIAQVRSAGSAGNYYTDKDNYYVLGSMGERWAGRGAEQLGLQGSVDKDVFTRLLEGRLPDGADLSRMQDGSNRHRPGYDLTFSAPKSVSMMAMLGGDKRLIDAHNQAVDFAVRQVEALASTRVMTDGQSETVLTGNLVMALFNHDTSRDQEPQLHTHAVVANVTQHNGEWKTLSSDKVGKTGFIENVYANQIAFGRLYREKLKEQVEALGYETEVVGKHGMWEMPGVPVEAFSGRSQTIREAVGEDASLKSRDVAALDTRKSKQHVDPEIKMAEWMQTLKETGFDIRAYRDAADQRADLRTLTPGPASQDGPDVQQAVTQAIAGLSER

B1: WT 17mer (ssDNA)
DNA: TTTGCGTGGGGTGTGGT
B2: G151'C/C150'G 17mer (ssDNA)
DNA: TTTCGGTGGGGTGTGGT
B3: G144'C 17mer (ssDNA)
DNA: TTTGCGTGGGCTGTGGT
B4: G151'C/C150'G Hairpin (structured_DNA)
DNA: GCAAAAACTTGTTTTTCGGTGGGGTGTGGT
B5: WT Hairpin (structured_DNA)
DNA: B4 DNA with C17G, G18C
B6: G167'C/C166'G Hairpin (structured_DNA)
DNA: CGAAAAACTTGTTTTTGCGTGGGGTGTGGT
B7: G167'C/C166'G/G151'C/C150'G Hairpin (structured_DNA)
DNA: B6 DNA with G17C, C18G
B8: No Hairpin (ssDNA)
DNA: CGTTTTTGTTGTTTTTGCGTGGGGTGTGGT

Tests used:
[1] = target: T1, TraI36 (F TraI relaxase domain); test: fluorescence anisotropy and intensity
[2] = target: T1, TraI36 (F TraI relaxase domain); test: competition
[3] = target: T1, TraI36 (F TraI relaxase domain); test: fluorescence dissociation kinetics
[4] = target: T1, TraI36 (F TraI relaxase domain); test: fluorescence anisotropy and intensity; remark: listed apart in the source

Binder | Kd [1] [nM] | also measured
B1 | 39 ± 0.8 | –
B2 | 390 ± 9 | –
B3 | – | binding result [2]: no binding
B4 | – | binding result [3]: binds
B5 | – | Kd [4]: 6.8 ± 1.2 nM
B6 | – | Kd [4]: 12 ± 1.8 nM
B7 | 78 ± 2 | –
B8 | 16 ± 1 | –
